Experimental data reported in US7452690.

Test system: PL-FXa-b2AR fusion protein (ED-FXa cleavage site-beta2-adrenergic receptor) expressed on transiently transfected HEK293 cells

For Factor Xa, which “EFC activity as relative luminescent units (RLU)” value is on record?
The value was “a difference in about 30000 RLUs was observed over a range in concentration of FXa of about 10^-3 to 10^1 µg/mL”.

And the “readings (chemiluminescence, β-galactosidase enzyme fragment complementation after cleavage)” value?
Its value is “the transiently infected cells showed an increase in the readings from 0.01 ng/well to 1000 ng/well of Factor Xa”.
